Measurements from patent US20040253248A1.

Target: rat neurokinin-1 receptor (NK-1R) (rat) (UniProt P14600)
Sequence (P14600 whole entry): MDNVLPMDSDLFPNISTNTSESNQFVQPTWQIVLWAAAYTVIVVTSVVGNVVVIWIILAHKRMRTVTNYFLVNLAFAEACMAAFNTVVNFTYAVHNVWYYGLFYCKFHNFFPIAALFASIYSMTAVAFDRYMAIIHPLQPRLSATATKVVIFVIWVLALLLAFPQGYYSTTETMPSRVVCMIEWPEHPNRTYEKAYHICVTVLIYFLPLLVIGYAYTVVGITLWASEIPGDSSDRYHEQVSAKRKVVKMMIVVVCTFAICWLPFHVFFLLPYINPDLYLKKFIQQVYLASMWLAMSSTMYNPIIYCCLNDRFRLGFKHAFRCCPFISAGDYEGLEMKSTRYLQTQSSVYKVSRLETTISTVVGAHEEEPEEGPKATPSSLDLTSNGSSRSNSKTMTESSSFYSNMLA

With “[Sar9, Met (02)11]-SP-SAP (from UniProt P20656 25-277)” the IC50 (read off the curve) was 0.2 nM.
